Source: paper PMC8034652 (Nucleic Acids Research, 2021)

Assays:
[1] = biological target: T1, FOXO1-DBD (human, UniProt Q12778 151-266); test: ITC
[2] = biological target: FOXO1-DBD Q227R (human, UniProt Q12778 151-266, Q227R); test: EMSA
[3] = biological target: FOXO1-DBD R225E (human, UniProt Q12778 151-266, R225E); test: EMSA
[4] = biological target: the molecule itself; test: […]
[5] = biological target: T2, FOXI1-DBD (UniProt Q12951 119-223); test: EMSA
T2 sequence: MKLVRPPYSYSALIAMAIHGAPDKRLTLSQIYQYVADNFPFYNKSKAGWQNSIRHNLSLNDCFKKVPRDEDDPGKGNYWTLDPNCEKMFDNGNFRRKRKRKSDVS

[6] = biological target: FOXO3-DBD (UniProt O43524 158-253); test: EMSA
[7] = biological target: T3, FOXC2-DBD (UniProt Q99958 72-171); test: EMSA
T3 sequence: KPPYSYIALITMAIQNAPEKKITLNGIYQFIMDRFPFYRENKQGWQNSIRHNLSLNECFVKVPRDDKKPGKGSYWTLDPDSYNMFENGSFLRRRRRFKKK

[8] = biological target: T4, FOXM1-DBD (UniProt Q08050 222-360); test: EMSA
T4 sequence: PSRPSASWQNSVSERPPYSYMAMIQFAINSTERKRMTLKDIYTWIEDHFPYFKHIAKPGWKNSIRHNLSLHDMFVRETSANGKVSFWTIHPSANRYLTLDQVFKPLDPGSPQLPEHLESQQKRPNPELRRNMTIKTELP

[9] = biological target: the molecule itself; test: crystal structure
[10] = biological target: T3, FOXC2-DBD; test: crystal structure
[11] = biological target: T1, FOXO1-DBD; test: crystal structure

B1: FKH_26 (dsDNA)
DNA 1: GACGAAGTAAACACGGCAGGTTCGTC
DNA 2: GACGAACCTGGCGTGTTTACTTCGTC
**Q.** What does the source list for B1?
**A.** Kd [1]: 1380 nM; binding result [2]: binds; binding result [3]: binds

B2: FOXI1-DBD (residues 119-223) (domain or fragment)
chain: MKLVRPPYSYSALIAMAIHGAPDKRLTLSQIYQYVADNFPFYNKSKAGWQNSIRHNLSLNDCFKKVPRDEDDPGKGNYWTLDPNCEKMFDNGNFRRKRKRKSDVS
**Q.** Does B2 bind [4]?
**A.** binds

B3: DIV2_26 (dsDNA)
DNA 1: GACGAAGTAAACATGTTTACTTCGTC
DNA 2: GACGAAGTAAACATGTTTACTTCGTC
**Q.** Which results are given for B3?
**A.** binding result [5]: binds; binding result [6]: binds; Kd [1]: 150 nM; binding result [7]: binds; binding result [8]: binds

B4: human FOXO1-DBD (residues 151-266) (domain or fragment)
chain: KSSSSRRNAWGNLSYADLITKAIESSAEKRLTLSQIYEWMVKSVPYFKDKGDSNSSAGWKNSIRHNLSLHSKFIRVQNEGTGKSSWWMLNPEGGKSGKSPRRRAASMDNNSKFAKS
**Q.** Which “stoichiometry N” value [9] does the source give for B4 here?
**A.** 2

B5: DIV2 20-bp crystal DNA (dsDNA)
DNA 1: ACCGTAAACATGTTTACGGT
DNA 2: ACCGTAAACATGTTTACGGT
**Q.** Does B5 bind [10]?
**A.** binds

**Q.** Does B5 bind [11]?
**A.** binds

B6: FOXO3-DBD (residues 158-253) (domain or fragment)
chain: GNLSYADLITRAIESSPDKRLTLSQIYEWMVRCVPYFKDKGDSNSSAGWKNSIRHNLSLHSRFMRVQNEGTGKSSWWIINPDGGKSGKAPRRRAVS
**Q.** Does B6 bind [4]?
**A.** binds
